The target in one experiment is 14-3-3τ (UniProt P27348). The experiment in a line: GST pull-down from co-transfected cells. The settings on record: reference: GST-HIP-55 wild type; sites S269,T291.
The target in a further experiment is MAP4K1 (UniProt Q92918). The experiment in a line: GST pull-down from transfected cells. The settings on record: reference: HIP-55 wild type; sites S269,T291.

In the case of “HIP-55 (from UniProt Q9UJU6) GST-HIP-55 S269A/T291A (HIP-55AA)”, the “binding against the reference” value with 14-3-3τ is listed as “lost”.
Turning to “HIP-55 (from UniProt Q9UJU6) HIP-55 S269A/T291A (HIP-55AA)”, the “binding against the reference” value with MAP4K1 was “weaker”.

The values are drawn from paper PMC9984488.
